# What was measured:
# [1] = GDP-mannose-3,5-epimerase candidate screening (GDP-D-mannose to GDP-L-galactose); assay type: biochemical; settings: enzymatic screening of candidates
# Description: The reaction conditions were: 2 mM GDP-D-mannose, 1 mM NAD^+, 50 mM Tris-HCl, pH 8.0 and with or without 0.33 mg/mL At GME. The reactions were incubated at room temperature for 16 hours, quenched by heating at 99° C. for 10 mins, and analyzed using HPLC.
# [2] = FKP activity towards L-galactose (GDP-L-galactose production); assay type: biochemical
# Description: FKP naturally catalyzes the conversion of L-fucose into GDP-L-fucose. It has been reported that FKP also could generate GDP-L-galactose from L-galactose (Ohashi et al. 2017). FKP was cloned into pET21, expressed and purified as described in Example 1. The activity of FKP towards L-galactose was assayed under the following conditions: 2 mM L-galactose, 2 mM ATP, 2 mM GTP, 4 mM MgCl2, 50 mM Tris-HCl, pH 7.5 and with or without 0.25 g/L FKP. The samples were incubated at room temperature overnight, and quenched by heating at 99° C. for 10 minutes, and analyzed using LC-MS.
# Further work was conducted to optimize the FKP reaction with L-galactose as the substrate, by varying reaction temperature, substrate concentrations, and adding an ATP/GTP regeneration system. The reaction conditions were: 50 mM Tris-HCl pH 7.5, 5 mM MgCl2, 5 mM L-galactose, 2 mM ATP, 2 mM GTP, 10 mM PEP, 1 U pyruvate kinase, and with or without 0.8 mg/mL FKP. The reaction was incubated at 37° C. for 44 hours. The reaction was quenched by heating at 99° C. for 10 minutes. The samples were analyzed using HPLC (FIG. 5).
# [3] = GDP-L-fucose inhibition assay of GMD enzymes (GDP-4-keto-6-deoxymannose detection); assay type: biochemical; settings: 350 μM GDP-L-fucose; 1 mM GDP-mannose, 0.5 mg/mL GMD
# Description: To test for inhibition, the mutants were expressed and purified as described in Example 7, and assayed at a range of GDP-L-fucose concentrations. The assay conditions were as follows: 50 mM Tris pH 7.5, 1 mM GDP-mannose, 0.5 mM NADP^+, 0.5 mg/mL dehydratase (GMD) enzyme, and 0 μM, 70 μM or 350 μM GDP-L-fucose. The reactions were quenched at 99° C. for 10 minutes, and the enzymes' respective activities were analyzed using the nucleotide sugar LC-MS method by GDP-4-keto-6-deoxymannose detection.
# [4] = Dehydratase screening for GDP-L-fucose synthesis from GDP-L-galactose; assay type: biochemical
# Description: Four enzymes were screened: At Gmd (SEQ ID NO: 5), Hs Gmd (SEQ ID NO: 9), Ec Gmd (SEQ ID NO: 11) and Yp DmhA (SEQ ID NO: 13), while Ec WcaG (SEQ ID NO: 7) is known to be a reductase. […] The reactions were incubated for 16 hours at 37° C., and then quenched by heating at 99° C. for 10 minutes. Samples were analyzed by both HPLC and LC-MS methods.
# [5] = FutC candidate activity in vitro using the de novo synthesis pathway (2′-FL by HPLC); assay type: biochemical; settings: 0.2 mg/mL fucosyltransferase, 1 mM GDP-mannose, 80 mM lactose, room temperature, 16 hours
# Description: The final step in the novel path to 2′-FL requires an α-1,2-fucosyltransferase. Various FutC candidates were screened for soluble expression in E. coli and fucosyltransferase activity. The candidate enzymes show different solubilities and enzymatic activity for 2′-FL synthesis. For the candidates that have highly soluble expression, their activity was tested in vitro using the de novo synthesis pathway. The reaction conditions were: 50 mM Tris-HCl pH 8.0, 2 mM NADPH, 0.1 mM NADP^+, 1 mM GDP-mannose, 80 mM lactose, 0.9 mg/mL Ec Gmd (SEQ 11), 0.2 mg/mL Ec WcaG (SEQ ID NO: 7) and 0.2 mg/mL of the fucosyltransferase candidates. The reactions were incubated at room temperature for 16 hours. The reactions were quenched by heating at 99° C. for 10 minutes, and then analyzed by HPLC.
# [6] = Activity comparison of purified FutC enzymes; assay type: biochemical; settings: 2 mM GDP-L-fucose, 40 mM lactose, 0.5 mg/mL FutC
# Description: An assay was performed to compare the activity of the ASR11 and ASR12 enzymes to the activity of the parent construct, FutC #5 (SEQ ID NO: 29) and Helicobacter pylori FutC (HpFutC, SEQ ID NO: 61), an enzyme commonly used for 2′-FL production. Specifically, the assay conditions were: 2 mM GDP-L-fucose, 40 mM lactose, 50 mM Tris pH 7.5, and 0.5 mg/mL FutC.
# [7] = expressed in E. coli
# Description: One of the major limitations for 2′-FL production is FutC activity. After screening various FutC candidates as described in Example 5, the inventors sought to identify mutant FutC candidates with even higher activity and improved solubility using bioinformatics. Based on ancestral sequence reconstruction (ASR) analysis, a series of ASR mutants were designed (Table 5) and screened for their solubility and activity.
# (§1) The enzymes listed in Table 5 were expressed in E. coli, and the clarified lysate was normalized based on the OD600 standard curve and used to screen for activity. To the clarified lysate was added 50 mM Tris pH 7.5, 1 mM GDP-L-fucose, and 80 mM lactose, and the reactions were quenched by heating at 99° C. for 10 minutes, and analyzed using the 2′-FL HPLC method.
# [8] = ASR library activity screen in clarified E. coli lysate; assay type: biochemical; settings: 1 mM GDP-L-fucose, 80 mM lactose
# Description: as §1
# [9] = In vitro enzyme cascade converting L-galactose to 2′-FL; assay type: biochemical; settings: 10 mM L-galactose, 0.2 g/L FutC, quenched at 3 hours and 22 hours
# Description: The reaction conditions were: 50 mM Tris pH 7.5, 10 mM L-galactose, 2 mM ATP, 2 mM GTP, 25 mM acetyl phosphate, 5 mM magnesium chloride, 5 mM potassium chloride, 0.15 mM NADP^+, 0.5 mM NADPH, 40 mM lactose, 0.23 g/L […] (FKP, SEQ ID NO: 1), 0.06 g/L an acetate kinase for the ATP recycling system (Gs Ack, SEQ ID NO: 65), 0.3 g/L At GMD (SEQ ID NO: 79), 0.75 g/L WcaG (SEQ ID NO: 7) and 0.2 g/L ASR 12 (SEQ ID NO: 109). The reactions were quenched by heating at 99° C. […] and analyzed using the 2′-FL LC-MS method.
molecule,measurement,setting,value
"At GME: GDP-mannose-3,5-epimerase from Arabidopsis thaliana, SEQ ID NO: 3","GDP-mannose-3,5-epimerase activity",[1],higher activity than Os GME
"FKP: fucokinase/guanylyltransferase from Bacteroides fragilis, SEQ ID NO: 1 (protein, listed as Bacteroides fragilis) MQKLLSLPPNLVQSFHELERVNRTDWFCTSDPVGKKLGSGGGTSWLLEECYNEYSDGATFGEWLEKEKRILLHAGGQSRRLPGYAPSGKILTPVPVFRWERGQHLGQNLLSLQLPLYEKIMSLAPDKLHTLIASGDVYIRSEKPLQSIPEADVVCYGLWVDPSLATHHGVFASDRKHPEQLDFMLQKPSLAELESLSKTHLFLMDIGIWLLSDRAVEILMKRSHKESSEELKYYDLYSDFGLALGTHPRIEDEEVNTLSVAILPLPGGEFYHYGTSKELISSTLSVQNKVYDQRRIMHRKVKPNPAMFVQNAVVRIPLCAENADLWIENSHIGPKWKIASRHIITGVPENDWSLAVPAGVCVDVVPMGDKGFVARPYGLDDVFKGDLRDSKTTLTGIPFGEWMSKRGLSYTDLKGRTDDLQAASVFPMVNSVEELGLVLRWMLSEPELEEGKNIWLRSERFSADEISAGANLKRLYAQREEFRKGNWQALAVNHEKSVFYQLDLADAAEDFVRLGLDMPELLPEDALQMSRIHNRMLRARILKLDGKDYRPEEQAAFDLLRDGLLDGISNRKSTPKLDVYSDQIVWGRSPVRIDMAGGWTDTPPYSLYSGGNVVNLAIELNGQPPLQVYVKPCKDFHIVLRSIDMGAMEIVSTFDELQDYKKIGSPFSIPKAALSLAGFAPAFSAVSYASLEEQLKDFGAGIEVTLLAAIPAGSGLGTSSILASTVLGAINDFCGLAWDKNEICQRTLVLEQLLTTGGGWQDQYGGVLQGVKLLQTEAGFAQSPLVRWLPDHLFTHPEYKDCHLLYYTGITRTAKGILAEIVSSMFLNSSLHLNLLSEMKAHALDMNEAIQRGSFVEFGRLVGKTWEQNKALDSGTNPPAVEAIIDLIKDYTLGYKLPGAGGGGYLYMVAKDPQAAVRIRKILTENAPNPRARFVEMTLSDKGFQVSRS",conversion of L-galactose to GDP-L-galactose,"[2]; 2 mM L-galactose, 0.25 g/L FKP, room temperature overnight, LC-MS",catalyzes the conversion of L-galactose to GDP-L-galactose
same,final titer of GDP-L-galactose,"[2]; 5 mM L-galactose, 0.8 mg/mL FKP, PEP/pyruvate kinase regeneration, 37° C., 44 hours",2.5 g/L
"At WT: GDP-mannose-4,6-dehydratase from Arabidopsis thaliana, wild type, SEQ ID NO: 5 (protein, listed as Arabidopsis thaliana) MASENNGSRSDSESITAPKADSTVVEPRKIALITGITGQDGSYLTEFLLGKGYEVHGLIRRSSNFNTQRINHIYIDPHNVNKALMKLHYADLTDASSLRRWIDVIKPDEVYNLAAQSHVAVSFEIPDYTADVVATGALRLLEAVRSHTIDSGRTVKYYQAGSSEMFGSTPPPQSETTPFHPRSPYAASKCAAHWYTVNYREAYGLFACNGILFNHESPRRGENFVTRKITRALGRIKVGLQTKLFLGNLQASRDWGFAGDYVEAMWLMLQQEKPDDYVVATEEGHTVEEFLDVSFGYLGLNWKDYVEIDQRYFRPAEVDNLQGDASKAKEVLGWKPQVGFEKLVKMMVDEDLELAKREKVLVDAGYMDAKQQP",decrease in activity,[3],95%
same,dehydratase activity towards GDP-L-galactose,"[4]; 5 mM GDP-L-Gal, 2.4 g/L At Gmd, 3.2 g/L Ec WcaG, 16 hours, 37° C.",has dehydratase activity towards GDP-L-galactose
same,initial dehydratase activity,[4]; among four potential dehydratases screened,highest initial activity
"FutC13: α-1,2-fucosyltransferase candidate from Candidatus Brocadia sapporoensis, SEQ ID NO: 45 (protein, Candidatus Brocadia sapporoensis) MQLKRWPQLKPTDAAVFGSGKQTIMIIVKLMGGLGNQMFQYAAGRRLAEKLGVKLKLDIEMFKDNTLRKYELGAFNIQECFAAVEEIERLTVVKRGIVEKALDRVFKRPIRRPGGYVAEKYFVFDPSILQLPDQVYLDGYWQSEKYFAEIETIIREEFTIKYPQTDKNKVLSDSIKSGNSVTVHVRRGDYVNNPETNSLHGVCGIDYYQRCIDFIITKIANPHFFFFSDDPEWVKNNLKIKYESTVVEHNGAEKCYEDLRLLSQGKYHIIANSTFSWWGAWLNKNPEKMVVAPEKWFKKEDVNTKGFIPEDWIRL","α-1,2-fucosyltransferase activity for 2′-FL production",[5],"have α-1,2-fucosyltransferase activity for 2′-FL production"
"FutC 18: α-1,2-fucosyltransferase candidate from Rhizobiales bacterium, SEQ ID NO: 55 (protein, listed as Rhizobiales bacterium) MIVTRIVGGLGNQMFQYAVGRALSAKTGQEFKLDLSEMDRYKVHALQLDQFNIKGVRAGRHEIPFRPRKSFFGKILTALKNRNRIPQVFETTPSFDPSVLQRKGSCYLSGYWQSEKYFSDCSELIRADFSLKGPMSDERQAVLSQIRDAEAPVSVHVRRGDYVTNTTANSIHGTCEPEWYRQAMRKISDRTGDPTFFVFSDDPMWARSNLPTYEKMVFVEPRADGKDAEDMHLMSSCQSHIIANSTFSWWGAWLNPRQDKRVIAPARWFRAEDRDSTDLVPAQWERL","α-1,2-fucosyltransferase activity for 2′-FL production",[5],"have α-1,2-fucosyltransferase activity for 2′-FL production"
"ASR 12: FutC mutant from ancestral sequence reconstruction, SEQ ID NO: 109 (protein, ASR12) MIIIRMSGGLGNQMFQYALYRKLKSMGKEVKIDDITGYEDDNQRSIMLDVFGIDYDKATKEEITKLTDSSMDFLSRIRRKLFGRKSKEYQEEDFNFDPQVLEMDDAYLEGYFQSEKYFQDVREQLRKEFTFRKNSVPELSEQTKELRKQIENSNSVSIHIRRGDYLENSHAEIYGGICTDDYYKKAIEYMKEKFPDAKFYIFSNDIEWAKQHFKGENFVIVDASEENTGYADMYLMSKCKHHIIANSSFSWWGAWLNDNPEKIVIAPSKWLNNKECKDIYTDRMIKIDAKGEVRSEDYGVRTNSTVK",FutC activity compared to Hp FutC and parent FutC 5,[6],outperformed Hp FutC as well as the parent construct
same,solubility compared to the rest of the ASR library,[7],improved
same,activity compared to the rest of the ASR library,[8],improved
same,2′-FL production compared to FutC #5 and Hp FutC,[9],significantly higher
